The values below come from the supplement of paper PMC9170038.

The series concerns MS2 coat protein. The series can be described thus: apparent KD of MS2 coat protein; designed switch direction (-1 OFF switch, 1 ON switch): -1; higher = weaker reporter binding. Summed up: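 The buffer was Tris-HCl pH 7.5 with KCl, MgCl2, BSA, DTT, tRNA and Tween-20. In it, SNAP-549-labelled MS2 coat protein was titrated in doubling steps from 0.7 or 1.5 nM to 3 µM over chip-bound RNA switches transcribed by stalled E. coli RNA polymerase on Illumina chips. Apparent KD is the per-design median over clusters of curve fits to normalised fluorescence.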

[1] abbreviates: Eterna round: R95, input ligand: FMN 200 uM.
[2] abbreviates: Eterna round: R95, input ligand: microRNA oligo, concentration not stated.
Setting [3] is: Eterna round: R95, input ligand: none.
Where [4] appears, read: input ligand: microRNA oligo, concentration not stated.

Consider “GAGGCUAAAGGAUAUACAUGAGGAUCACCCAUGUGGAGGAAGGUUAGAUGAGGAGAAGGUAGAAGGUUAGGCGA [JR_Exclu3_Sub093] (puzzle: Exclusion 3)”, for which the “apparent KD of MS2 coat protein” value runs as follows: under setting [1], 29.7 nM; under setting [2], 23.6 nM; under setting [3], 28.6 nM.

As for “GAGGGACAUGAGGAUCACCCAUGUGAGGAUAUGGAGAGGAGGAGGGAGGAGGAGGAGGCCAGAAGGCGCAAGAA [THE BEST I guess] (puzzle: Exclusion 1)”, the “apparent KD of MS2 coat protein” value under setting [1] stood at 22.6 nM, the “apparent KD of MS2 coat protein” value under setting [2] turned out to be 28 nM and the “apparent KD of MS2 coat protein” value under setting [3] stood at 46 nM.

In the case of “GAGGGACAUGAGGAUCACCCAUGUGAGGAUAUGUGAGAAGGAUUGGAGAGUGAGUGGGACAGAAGGCGCAAGGG [JR_Exclu1_Sub085] (puzzle: Exclusion 1)”, the “apparent KD of MS2 coat protein” value under setting [1] came to 95.4 nM, the “apparent KD of MS2 coat protein” value under setting [2] came out at 59.9 nM and the “apparent KD of MS2 coat protein” value under setting [3] was 78 nM.

On to “GAGGGUUAAGGAUAUACAUGAGGAUCACCCAUGUAUGGCAAGCCAUAAUCCUCAUUAAGUAGAAGGUAACCUUC [Edederle] (puzzle: Exclusion 3)”, for which, under setting [2], the “apparent KD of MS2 coat protein” value was 11.8 nM.

For the sequence “GAGUAGAGAGGAUAUGCAAUGAUCAUCGUACGAUGAGGCUGACAUGAGGAUCACCCAUGUAGAAGGCUCUGGUC [EX2 #20] (Eterna round: R97, puzzle: Exclusion 2)”, the “apparent KD of MS2 coat protein” value is, setting by setting: (input ligand: FMN 200 uM) 22.5 nM; (input ligand: none) 23.3 nM.

Consider “GAGUAGUAAGGAUAUAGUAGGAGGGAGAAGAGAGGAGAGAACUAGAAGGUACAUGAGGAUCACCCAUGUUGAGA [JR_Exclu4_Sub083] (puzzle: Exclusion 4)”, for which the “apparent KD of MS2 coat protein” value under setting [1] was determined as 18.5 nM, the “apparent KD of MS2 coat protein” value under setting [2] was found to be 17 nM and the “apparent KD of MS2 coat protein” value under setting [3] amounted to 20.4 nM.

In the case of “GAGUGAAGUGCAGGAUAUCUAGAAGGAAGAAGGAGGAAACAUGAGGAUCACCCAUGUAAUCCAUAAGAGAAGGGCGGAGAGGAG [An ugly monster] (Eterna round: R96, puzzle: Exclusion NG 2)”, the “apparent KD of MS2 coat protein” value turned out to be 16.3 nM (input ligand: FMN 200 uM), 14.3 nM under setting [4] and 18.3 nM (input ligand: none).

Consider “GAGUUAGCGUGAGGAAUAUACAUGAGGAUCACCCAUGUUAGCUAAUAUAUUGCUCGUCUUAUAACAACAAUUAACUC [Alarm 10 - Jieux - Sensor, turn-off variant 1] (Eterna round: R97, puzzle: Sensor, turn-off variant 1)”, for which the “apparent KD of MS2 coat protein” value (input ligand: FMN 200 uM) came to 14.6 nM and the “apparent KD of MS2 coat protein” value (input ligand: none) worked out at 13.2 nM.

On to “GAGUUAGCGUGUGGAAUAUACAUGAGGAUCACCCAUGUUAGCUUAUAUAUUGCUCGUCUUAUAACAACAAUUAACUG [Mod JX-Electric-eye3] (Eterna round: R97, puzzle: Sensor, turn-off variant 1)”, for which the “apparent KD of MS2 coat protein” value was found to be 138 nM (input ligand: FMN 200 uM) and 143 nM (input ligand: none).

As to “GAUAAGGUAGGAUAUACGAAUAAAAAGGGUAGAAGAAGAACACAUGAGGAUCACCCAUGUAGAAGGACCAAUAG [Mat - Exclusion 2 - Mod of my Tesla design - D24] (puzzle: Exclusion 2)”, the “apparent KD of MS2 coat protein” value is, setting by setting: under setting [1], 37.9 nM; under setting [2], 19.7 nM; under setting [3], 16.5 nM.

Consider “GAUAAGGUAGGAUAUACGAAUAAAUAGGGUAGUAAUAAUACACAUGAGGAUCACCCAUGUAGAAGGACCAAUAG [Mat - Exclusion 2 - Mod of my Tesla design - D41] (puzzle: Exclusion 2)”, for which the “apparent KD of MS2 coat protein” value is, setting by setting: under setting [1], 37.4 nM; under setting [2], 19.4 nM; under setting [3], 21.4 nM.

Take “GAUAGAGAGCAGGAUAUCUUGGGUAAGUAUCAUAGAGAAGGGCUCACAUGAGGAUCACCCAUGUGGUCCAAGAU [Dibira] (puzzle: Exclusion 6)”: the “apparent KD of MS2 coat protein” value is, setting by setting: under setting [1], 42.8 nM; under setting [2], 13 nM; under setting [3], 12.6 nM.

“GAUAGAGAGCAGGAUAUCUUGGGUAAGUAUCGUAGAGAAGGGCUCACAUGAGGAUCACCCAUGUGGUCCAAGAU [JL Dibiri mod 01] (puzzle: Exclusion 6)”: under setting [2], the “apparent KD of MS2 coat protein” value came out at 14.4 nM.

Consider “GAUAUAGAGCAGGAUAUCUUAGAUAUGUAAUAAAGAGAAGGGCUCACAUGAGGAUCACCCAUGUGGUCCUAGAU [JL Dibiri mod 13] (puzzle: Exclusion 6)”, for which the “apparent KD of MS2 coat protein” value under setting [2] came to 20.7 nM.

Take “GAUCAACAUGAGGAUCACCCAUGUGAGGAUAUGAUACUAUGUACUUCGGUACAUAGUAUCAGAAGGCACAUUGA [Ex1-3: 42] (puzzle: Exclusion 1)”: the “apparent KD of MS2 coat protein” value under setting [2] came out at 90.9 nM.

As for “GAUCAUGCAGGAUAUACAGUUUCCAUGAUAACAUGGUCCUCACAUGAGGAUCACCCAUGUAGAAGGGCAUGAUC [Omei Ex2 A29] (Eterna round: R97, puzzle: Exclusion 2)”, the “apparent KD of MS2 coat protein” value was 258 nM (input ligand: FMN 200 uM) and 1080 nM (input ligand: none).

With “GAUCAUGCAGGAUAUACAUGGAUCAUGAAAACAUGGAUUUCACAUGAGGAUCACCCAUGUAGAAGGGCAUGAUC [Omei Ex2 A10] (Eterna round: R97, puzzle: Exclusion 2)”, the “apparent KD of MS2 coat protein” value runs as follows: (input ligand: FMN 200 uM) 47.5 nM; (input ligand: none) 141 nM.

For the sequence “GAUCCACAUGAGGAUCACCCAUGUGAGGAUAUGAUACUAUGUACUUCGGUACAUAGUAUCAGAAGGCACAGGUC [Ex1-3: 56] (Eterna round: R96, puzzle: Exclusion 1)”, the “apparent KD of MS2 coat protein” value worked out at 333 nM (input ligand: FMN 200 uM), 50.7 nM under setting [4] and 52.9 nM (input ligand: none).

For the sequence “GAUCCACAUGAGGAUCACCCAUGUGAGGAUAUGAUACUAUGUACUUCGGUACAUAGUAUCAGAAGGCACAGGUC [Ex1-3: 56] (puzzle: Exclusion 1)”, the “apparent KD of MS2 coat protein” value under setting [2] was 50.6 nM.

As for “GAUGAGGUAGGAUAUACGAUAAUAUAGGGUAGAUAUAUAACACAUGAGGAUCACCCAUGUAGAAGGACCAGUAC [Mat - Exclusion 2 - Mod of my Tesla design - D69] (puzzle: Exclusion 2)”, the “apparent KD of MS2 coat protein” value under setting [2] stood at 36.4 nM.

As for “GAUGUUUAAGGAUAUACAAUGAAUGUAUGCCACAUGGAAAUACAUGAGGAUCACCCAUGUAGAAGGUAAGGGAU [Eternabot (L2) Solution 37] (Eterna round: R97, puzzle: Exclusion 2)”, the “apparent KD of MS2 coat protein” value is, setting by setting: (input ligand: FMN 200 uM) 27.1 nM; (input ligand: none) 20.5 nM.

Consider “GAUUAACAUGAGGAUCACCCAUGUGAGGAUAUACGAGAAUAGAUUUCGAUCAGAUAGAGUAGAAGGCACAGAUA [EX1 #1] (Eterna round: R97, puzzle: Exclusion 1)”, for which the “apparent KD of MS2 coat protein” value (input ligand: FMN 200 uM) was found to be 44.9 nM and the “apparent KD of MS2 coat protein” value (input ligand: none) was 27 nM.

On to “GAUUAACAUGAGGAUCACCCAUGUGAGGAUAUGGAAUGGCUCAUUGUUUGAUUCCCGUCUAGAAGGCACAUCUU [1986#7] (Eterna round: R97, puzzle: Exclusion 1)”, for which the “apparent KD of MS2 coat protein” value was determined as 150 nM (input ligand: FMN 200 uM) and 116 nM (input ligand: none).

Turning to “GAUUAUGCGAGCUUUAGGGACAUGAGGAUCACCCAUGUUCGUCUUAUUAAUCUGGGUACACUAGCAUACCUAAAUCU [JMF 8] (puzzle: Sensor v3, turn-off variant 1)”, the “apparent KD of MS2 coat protein” value runs as follows: under setting [1], 26.9 nM; under setting [2], 44.1 nM; under setting [3], 30.5 nM.

For “GAUUAUGCGAGCUUUAGGGACAUGAGGAUCACCCAUGUUCGUCUUAUUAGUCUGGGUACACUGACAUACCUAAAUCU [JMF 71] (puzzle: Sensor v3, turn-off variant 1)”, the “apparent KD of MS2 coat protein” value under setting [1] is 24.6 nM, the “apparent KD of MS2 coat protein” value under setting [2] was determined as 35.2 nM and the “apparent KD of MS2 coat protein” value under setting [3] came to 25.4 nM.

As for “GAUUAUGCGAGCUUUAGGGACAUGAGGAUCACCCAUGUUCGUCUUAUUGAUCUAGGUACGCUGACGUACCUAAAUCU [Mod of one of jandersonlee's solutions] (puzzle: Sensor v3, turn-off variant 1)”, the “apparent KD of MS2 coat protein” value worked out at 20.5 nM under setting [1], 35.2 nM under setting [2] and 23.4 nM under setting [3].

For “GAUUAUGCGAGCUUUAGGGACAUGAGGAUCACCCAUGUUCGUCUUAUUGAUCUGGGUACACUAACAUACCUAAAUCU [JMF 20] (puzzle: Sensor v3, turn-off variant 1)”, the “apparent KD of MS2 coat protein” value under setting [1] is 87.2 nM, the “apparent KD of MS2 coat protein” value under setting [2] was 99.7 nM and the “apparent KD of MS2 coat protein” value under setting [3] was found to be 94.3 nM.

Take “GAUUAUGCGAGCUUUAGGGACAUGAGGAUCACCCAUGUUCGUCUUAUUGGUCUAGGUGCGCUAACAUACCUAAAUCU [JMF 51] (puzzle: Sensor v3, turn-off variant 1)”: the “apparent KD of MS2 coat protein” value by setting is: under setting [1], 21.9 nM; under setting [2], 34.8 nM; under setting [3], 25.4 nM.

With “GAUUAUGCGAGCUUUAGGGACAUGAGGAUCACCCAUGUUCGUCUUAUUGGUCUGGAUACACUGACAUACCUAAAUCU [JMF 60] (puzzle: Sensor v3, turn-off variant 1)”, the “apparent KD of MS2 coat protein” value under setting [1] was found to be 16.8 nM, the “apparent KD of MS2 coat protein” value under setting [2] was determined as 22.6 nM and the “apparent KD of MS2 coat protein” value under setting [3] turned out to be 18.4 nM.

In the case of “GAUUAUGCGAGCUUUAGGGACAUGAGGAUCACCCAUGUUCGUCUUAUUGGUCUGGAUGCACUAACAUACCUAAAUCU [JMF 28] (puzzle: Sensor v3, turn-off variant 1)”, the “apparent KD of MS2 coat protein” value by setting is: under setting [1], 22.4 nM; under setting [2], 30.4 nM; under setting [3], 24 nM.

For “GAUUAUGCGAGCUUUAGGGACAUGAGGAUCACCCAUGUUCGUCUUGUUGAUCUAGGUACGCUGACAUACCUAAAUCU [JMF 99] (puzzle: Sensor v3, turn-off variant 1)”, the “apparent KD of MS2 coat protein” value worked out at 19.6 nM under setting [1], 25.6 nM under setting [2] and 19.7 nM under setting [3].
